Results as given in US20180127503A1 (EUREKA THERAPEUTICS, published 2018).

B1: ROR2 clone #024 scFv phage antibody (scFv, V domains shown)
VH: EVQLVQSGAEVKKPGESLKISCKASGYSFSNYWIGWVRQMPGKGLEWMGIIYPDDSDTRYSPSVQGQVTISADKSISTAYLQWYSLKVADTAKYYCVRPRGAFDIWGQGTTVTVSS
VL: EIVMTQSPATLSVSPGESATLSCRASQGVGINLAWYQQRPGQPPRLLIYDASNRATGIPARFSGSGSGTDFTLTISSLQAEDVAVYYCQQYYSFPWTFGQGTKVEIKR
notes: also called clone #24; ROR2-24
B2: ROR2 clone #159 scFv phage antibody (scFv, V domains shown)
VH: QMQLVQSGAEVKKPGASVKVSCKASGYTFTSYYMHWVRQAPGQGLEWMGIINPSGGSTSYAQKFQGRVTMTRDTSTSTVYMELSSLRSEDTAVYYCARGGYTGWSPSDPWGQGTLVTVSS
VL: QSALTQPASVSGSPGQSITISCTGTSSDVGGYNYVSWYQQHPGKAPKFMIYDVSKRPSGVSNRFSGSKSGNTASLTISGLQAEDEADYYCGSFTSSITYVFGTGTKVTVLG
notes: also called ROR2-159
B3: ROR2 clone #016 scFv phage antibody (scFv, V domains shown)
VH: EVQLVQSGAEVKKPGASVKVSCKASGYTFTDYYIHWVRQAPGQGLEWMGWMNPNSGNSVSAQKFQGRVTMTRDTSINTAYMELSSLTSDDTAVYYCARNSEWHPWGYYDYWGQGTLVTVSS
VL: SSELTQDPAVSVALGQTVRITCQGDSLRSYYASWYQQKPGQAPVLVIYGKNNRPSGIPDRFSGSSSGNTASLTITGAQAEDEADYYCNSRDSSGNHLVFGGGTKLTVLG
notes: also called clone #16; ROR2-16
B4: ROR2 clone #093 scFv phage antibody (scFv, V domains shown)
VH: QMQLVQSGGGVVQPGRSLRLSCAASGFTFSNYDMHWVRRAPGKGLEWVAVISYDGSNNYYADSVKGRFTISRDNSKNTLYLQMNSLRAEDTAVYYCARSSAWVGGGFLSGTDDWGQGTLVTVSS
VL: EIVMTQSPATLSLSPGERATLSCGASQSVSSSYLAWYQQKPGLAPRLLIYDTSRRATGIPDRFSGSGSGTDFTLTISRLEPEDFAVYYCLHYGRSPPVTFGGGTKVEIKR
notes: also called clone #93; ROR2-93
B5: ROR2 clone #096 scFv phage antibody (scFv, V domains shown)
VH: EVQLVQSGGGLVQPGGSLRLSCAASGFSLNDYYMDWVRQAPGEGLEWVGRIRDKAHGDTTEYIASVKDRFIVSRDDSKNSLYLQMNSLKTEDTAMYYCARWVDDYQGYWIWSYHDFWGQGTLVTVSS
VL: EIVLTQSPLSLPVTLGQPASISCRSSQSLAYSDGNTYLNWFHQRPGQSPRRLIYKVSKRDSGVPDRFSGSGSGTDFTLRISRVEAEDVGIYYCMQGTHWPHTFGPGTKVDIKR
notes: also called clone #96; ROR2-96
B6: ROR2 clone #121 scFv phage antibody (scFv, V domains shown)
VH: QVQLVQSGGGLVQPGGSLRLSCAATGFTFSSYAMSWVRQAPGKGLEWVSVISGSGGSTYYADSVKGRFTISRDNSKNTLYLQMNSLRADDTAVYYCARHYYSSDSWGQGTLVTVSS
VL: SYVLTQPPSVSVSPGQTASVTCSGYRLREKYVSWYQQRPGHSPVLVIYEDTKRPSGIPERFSGSNSGDTATLTIRGTQAIDEADYYCQAWDSSVIFGGGTKLTVLG
notes: also called ROR2-121
B7: ROR2 clone #084 scFv phage antibody (scFv, V domains shown)
VH: QVQLVESGGGLVQPGGSLRLSCAASGFTFSSYWMSWVRQAPGKGLEWVANIKQDGSEKYYVDSVRGRFTISRDNAKNSLYLQMNSLRAEDTAMYYCARGSFSYDSDLWGQGTLVTVSS
VL: DVVMTQSPLSLPVTLGQPASISCRSSQSLVHSDGNTYLNWFQQRPGQSPRRLIYKVSSRDSGVPDRFSGTGSGTDFTLKISRVEAEDVGVYYCMQTTHWPPTFGQGTKVEIKR
notes: also called clone #84; ROR2-84
B8: ROR2 clone #173 scFv phage antibody (scFv, V domains shown)
VH: QVQLVQSGAEVKKPGASVKVSCKASGYTFTSYGISWVRQAPGQGLEWMGWISAYNGNTNYAQKLQGRVTMTTDTSTSTAYMELRSLRSDDTAVYYCARHLGPMGMYDWSFDKWGQGTLVTVSS
VL: QSVLTQPPSVSVAPGKTARITCGGDNIGRKSVHWYQQKPGQAPVLVIYYDSDRPSGIPERFSGSTSGNTATLTISRVEAGDEADYYCQVWDRSSDLYVFGTGTKVTVLG
notes: also called ROR2-173

The binders below were run against T1, human ROR2 ECD-Fc fusion protein (human, UniProt Q01974 34-403) (assay: phage ELISA on coated ROR2 ECD-Fc).
T1 construct: Panning and phage ELISA antigen; also called human ROR2-ECD (phage ELISA); not shown: Fc part and any linker are not described
T1 sequence (Q01974 34-403): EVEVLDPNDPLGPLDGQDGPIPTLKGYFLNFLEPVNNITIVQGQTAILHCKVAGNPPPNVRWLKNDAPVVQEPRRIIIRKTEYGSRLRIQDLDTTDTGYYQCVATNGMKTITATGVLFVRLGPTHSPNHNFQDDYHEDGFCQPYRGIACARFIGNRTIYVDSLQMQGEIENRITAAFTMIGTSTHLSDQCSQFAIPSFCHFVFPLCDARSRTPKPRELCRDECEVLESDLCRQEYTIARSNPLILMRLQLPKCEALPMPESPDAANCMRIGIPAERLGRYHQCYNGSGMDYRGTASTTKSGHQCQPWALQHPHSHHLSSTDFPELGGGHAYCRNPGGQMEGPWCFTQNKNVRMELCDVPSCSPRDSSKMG

**Q.** Does B1 bind?
**A.** binds

Each binder was assayed against T2, human ROR1 ECD-Fc fusion protein (human, UniProt Q01973 30-406) (assay: summary of the phage clone screening (ELISA)).
T2 construct: not shown: Fc part and any linker are not described
T2 sequence (Q01973 30-406): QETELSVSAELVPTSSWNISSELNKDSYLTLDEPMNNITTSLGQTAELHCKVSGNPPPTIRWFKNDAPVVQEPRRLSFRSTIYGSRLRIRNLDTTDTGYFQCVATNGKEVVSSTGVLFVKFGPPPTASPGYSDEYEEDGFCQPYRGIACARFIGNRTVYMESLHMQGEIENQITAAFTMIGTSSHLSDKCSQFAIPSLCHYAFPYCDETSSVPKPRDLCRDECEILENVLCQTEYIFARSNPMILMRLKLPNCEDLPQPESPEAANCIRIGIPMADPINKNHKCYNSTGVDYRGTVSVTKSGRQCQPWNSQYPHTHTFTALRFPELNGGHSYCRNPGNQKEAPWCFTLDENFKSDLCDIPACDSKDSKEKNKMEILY

**Q.** Does B2 bind?
**A.** binds

**Q.** Does B3 bind?
**A.** binds

Each binder was assayed against T1, human ROR2 ECD-Fc fusion protein (assay: summary of the phage clone screening (ELISA)).

**Q.** Does B4 bind?
**A.** binds

**Q.** Does B5 bind?
**A.** binds

**Q.** Does B6 bind?
**A.** binds

**Q.** Does B2 bind?
**A.** binds

**Q.** Does B7 bind?
**A.** binds

**Q.** Does B8 bind?
**A.** binds

**Q.** Does B3 bind?
**A.** binds
